The values below come from patent EP4682166A1 (Guangzhou Enmai Biotechnology Co., Ltd, dated 2026).

In assay [1] the target is T1, human NMI (N-myc Interacting protein) (human, UniProt Q13287 1-307, limits assumed).
T1 construct: Immunogen and ELISA coating antigen; also called hNMI; antigen 1
T1 sequence (looked up): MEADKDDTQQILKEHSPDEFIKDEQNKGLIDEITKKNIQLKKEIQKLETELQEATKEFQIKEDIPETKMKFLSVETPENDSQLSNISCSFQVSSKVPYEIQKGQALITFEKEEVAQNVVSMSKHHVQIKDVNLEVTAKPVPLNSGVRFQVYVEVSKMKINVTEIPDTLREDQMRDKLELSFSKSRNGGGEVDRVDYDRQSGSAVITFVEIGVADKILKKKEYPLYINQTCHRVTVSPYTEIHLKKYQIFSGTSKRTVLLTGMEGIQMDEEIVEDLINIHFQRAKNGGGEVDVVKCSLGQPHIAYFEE
The assay is described as follows: I-ELISA, hNMI coated 1 ug/mL; antibody 78.125 ng/mL. On the technique in general: An ELISA detects its analyte on a solid surface through an enzyme-linked reagent.

Assay [2] addresses T1, human NMI (N-myc Interacting protein). As to the kind of experiment: I-ELISA, hNMI coated 1 ug/mL; antibody 19.53125 ng/mL.
For assay [3] the target is unchanged. The assay is described as follows: indirect ELISA, human NMI coated; supernatant 1/59049.
Assay [4] shares this target. As to the kind of experiment: indirect ELISA, human NMI coated; supernatant 1/9.
Assay [5] has the same target. As to the kind of experiment: indirect ELISA, human NMI coated (repeats Table 1).
Assay [6] has the same target. As to the kind of experiment: sandwich ELISA; coating antibody 2.5 ug/mL, detection 94C4-biotin 0.5 ug/mL.
Assay [7] has the same target. As to the kind of experiment: indirect ELISA, human NMI coated; supernatant 1/2187.
Assay [8] shares this target. As to the kind of experiment: I-ELISA, hNMI coated 1 ug/mL; antibody 625 ng/mL.
The target is the same in assay [9]. As to the kind of experiment: I-ELISA, hNMI coated 1 ug/mL; antibody 2.4414063 ng/mL.
The target is the same in assay [10]. As to the kind of experiment: I-ELISA, hNMI coated 1 ug/mL; antibody 39.0625 ng/mL.
The target is the same in assay [11]. The assay is described as follows: I-ELISA, hNMI coated 1 ug/mL; antibody 1250 ng/mL.
Assay [12] has the same target. The assay is described as follows: indirect ELISA, human NMI coated; supernatant 1/27.
For assay [13] the target is unchanged. The assay is described as follows: I-ELISA, hNMI coated 1 ug/mL; antibody 4.8828125 ng/mL.
Assay [14] has the same target. The assay is described as follows: indirect ELISA, human NMI coated; supernatant 1/6561.
Assay [15] shares this target. The assay is described as follows: indirect ELISA, human NMI coated; supernatant 1/729.
The target is the same in assay [16]. As to the kind of experiment: indirect ELISA, human NMI coated; supernatant 1/243.
The target is the same in assay [17]. As to the kind of experiment: I-ELISA, hNMI coated 1 ug/mL; antibody 2500 ng/mL.
For assay [18] the target is unchanged. The assay is described as follows: indirect ELISA, human NMI coated; supernatant 1/19683.
For assay [19] the target is unchanged. As to the kind of experiment: indirect ELISA, human NMI coated; supernatant 1/3.
Assay [20] shares this target. The assay is described as follows: I-ELISA, hNMI coated 1 ug/mL; antibody 9.765625 ng/mL.
The target is the same in assay [21]. The assay is described as follows: I-ELISA, hNMI coated 1 ug/mL; antibody 312.5 ng/mL.
Assay [22] has the same target. As to the kind of experiment: indirect ELISA, human NMI coated; supernatant dilution series.
For assay [23] the target is unchanged. As to the kind of experiment: I-ELISA, hNMI coated 1 ug/mL; antibody 156.25 ng/mL.
For assay [24] the target is unchanged. The assay is described as follows: indirect ELISA, human NMI coated; supernatant 1/81.
The target is the same in assay [25]. The assay is described as follows: I-ELISA, hNMI coated 1 ug/mL; antibody 1.2207031 ng/mL.
For assay [26] the target is unchanged. The assay is described as follows: indirect ELISA, human NMI coated; supernatant undiluted.
Assay [27] concerns the target T2, human NMI (N-myc Interacting protein), recombinant protein (human, UniProt Q13287 1-307, limits assumed).
T2 construct: Gene ID: 9111; also called hNMI; antigen
T2 sequence (looked up): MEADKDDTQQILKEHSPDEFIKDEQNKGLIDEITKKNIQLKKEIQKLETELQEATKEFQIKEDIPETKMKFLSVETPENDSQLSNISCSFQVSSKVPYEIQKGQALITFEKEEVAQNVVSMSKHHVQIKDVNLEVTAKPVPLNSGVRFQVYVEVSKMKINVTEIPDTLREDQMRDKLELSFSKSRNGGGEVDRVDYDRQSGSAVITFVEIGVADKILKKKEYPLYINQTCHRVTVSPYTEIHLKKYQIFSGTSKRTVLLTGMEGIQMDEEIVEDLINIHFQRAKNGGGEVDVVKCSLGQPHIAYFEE
The assay is described as follows: sandwich ELISA; detection 39B4-1-biotin; hNMI 33.333 ng/mL.

The target of assay [28] is T2, human NMI (N-myc Interacting protein), …. As to the kind of experiment: sandwich ELISA; detection 39B4-1-biotin; hNMI 11.111 ng/mL.
Assay [29] shares this target. As to the kind of experiment: sandwich ELISA; detection 98G10-1-biotin; hNMI 11.111 ng/mL.
Assay [30] has the same target. The assay is described as follows: sandwich ELISA; detection 98G10-1-biotin; hNMI 3.704 ng/mL.
Assay [31] shares this target. As to the kind of experiment: sandwich ELISA; detection 39B4-1-biotin; hNMI 1.235 ng/mL.
Assay [32] has the same target. As to the kind of experiment: sandwich ELISA; detection 39B4-1-biotin; hNMI 3.704 ng/mL.
Assay [33] shares this target. The assay is described as follows: sandwich ELISA; detection 98G10-1-biotin; hNMI 100.000 ng/mL.
For assay [34] the target is unchanged. The assay is described as follows: sandwich ELISA; detection 98G10-1-biotin; hNMI 1.235 ng/mL.
The target is the same in assay [35]. As to the kind of experiment: sandwich ELISA; detection 39B4-1-biotin; hNMI 100.000 ng/mL.
Assay [36] has the same target. As to the kind of experiment: sandwich ELISA; detection 98G10-1-biotin; hNMI 33.333 ng/mL.
Assay [37] shares this target. The assay is described as follows: indirect ELISA, coated hNMI.
Assay [38] addresses T1, human NMI (N-myc Interacting protein). The assay is described as follows: indirect ELISA, human NMI coated (repeats Table 3).
Assay [39] shares this target. The assay is described as follows: indirect ELISA, human NMI coated; supernatant dilution series. The source holds these as a separate data set.

B1: 39B4 (antibody, V domains shown)
VH: QEQLVESGGGLVQPEGSLTLTCTASGFSFSSSYWICWVRQAPGKGLEWIACIYAGTSGSTYYASWAKGRFTISKTSSTTVDLQMNSLTAADTATYFCARAGYYTYGAGVYIYPSSFKLWGPGTLVTVSS
VL: DVVMTQTPASVEAAVGGTVTIKCQASESIGNALAWYQQKPGQPPKLLIYSASNLASGVPSRFSGSGSGTQFTLTISDLECADAATYYCQSYYYSSSSITFGGGTEVVVK
notes: Rabbit monoclonal antibody; also called 39B4-1; 39B4-1-biotin (biotin-labelled form)
Regarding B1, the OD450 in [1] turned out to be 1.43 OD450; in assay [2], 0.529 OD450; in assay [8] it was 1.99 OD450; in [9], 0.099 OD450; in assay [10], 0.828 OD450; in assay [11] it was 2.13 OD450. Besides, the OD450 in assay [13] was determined as 0.159 OD450; in assay [17], 2.25 OD450; in assay [20], 0.296 OD450; in assay [21], 1.99 OD450; in [23], 1.8 OD450; in [25] it was 0.077 OD450. Also, the “ELISA OD” value in assay [3] worked out at 0.415 OD; in [4] it was 3.41 OD; in assay [7] it was 2.32 OD; in assay [12], 3.35 OD; in [14], 1.61 OD; in assay [15], 2.76 OD. The “ELISA OD” value was 3.1 OD in [16]; 0.758 OD in [18]; 3.43 OD in assay [19]; 3.28 OD in [24]; 3.4 OD in assay [26]. Besides, the EC50 in assay [5] and in assay [22] was 0.567 ng/mL throughout. In assay [6], the “detection limit (sensitivity)” value was determined as 40 pg/mL.

B2: monoclonal antibody 94C4 (antibody, V domains shown)
VH: QSLEESGGGLVQPEGSLTLTCKASGFDFSSNAMCWVRQAPGKGLEWIACISSASSGSSGSTYYASWAKGRFTISKTSSTTVTLQMTSLTAADMATYFCARDGYDLWGPGTLVTVSS
VL: QVLTQTPSSVSAAVGGTVTISCQSSPSVYNNYLSWFQQKPGQSPKLLIYRVSTLASGVPSRFSGSGSGTQFTLTISGVQCDDAATYYCAGGYDSASDTYVFGGGTEVVVK
notes: Rabbit monoclonal antibody; Used biotin-labelled as detection antibody (94C4-1-biotin); also called 94C4-1
B2: the OD450 was determined as 2.75 OD450 in [27]; 1.67 OD450 in assay [28]; 1.36 OD450 in assay [29]; 0.627 OD450 in assay [30]; 0.372 OD450 in assay [31]; 0.735 OD450 in assay [32]. Moreover, the OD450 in [33] stood at 3.1 OD450; in assay [34], 0.292 OD450; in assay [35] it was 3.22 OD450; in [36], 2.51 OD450. The half-maximal effective concentration (EC50) in [37] is 32.7 ng/mL.

B3: B-8 (antibody, V domains shown)
VH: QSLEESGGDLVKPGASLTLTCTASGFSFSSSYYMCWVRQAPGKGLEWIACIYAGSSGSTYYASWAKGRFTISKTSSTTVTLQMTSLTAADTATYFCAREYSYDDYGDFWGFNLWGPGTLVTVSS
VL: ALVMTQTPSSVSAAVGGTVTINCQASQNIYTNLAWYQQKPGQPPKLLIYGASNLESGVPSRFKGSGSGTEYTLTISDLECDDAATYYCQSSLYSRIADRANAFGGGTEVVVK
notes: Rabbit monoclonal antibody; also called B8-1; B-8-biotin (biotin-labelled form)
Consider B3, for which the OD450 in [1] turned out to be 1.26 OD450; in assay [2], 0.502 OD450; in assay [8], 1.62 OD450; in assay [9], 0.099 OD450; in assay [10] it was 0.838 OD450; in [11], 1.68 OD450. The OD450 came out at 0.143 OD450 in [13]; 1.85 OD450 in assay [17]; 0.243 OD450 in assay [20]; 1.67 OD450 in assay [21]; 1.36 OD450 in assay [23]; 0.084 OD450 in [25]. For the same molecule, the “detection limit (sensitivity)” value in assay [6] worked out at 60 pg/mL. Besides, the EC50 in assay [38] and in [39] was 2.51 ng/mL in each case.

Broadly, the EC50 is the midpoint of the concentration-response curve.
